Results from patent publication US20260166158A1, “HSP90-BINDING CONJUGATES AND FORMULATIONS THEREOF” (Fusion Pharmaceuticals Inc., priority 2019, published 2026).

System: NCI-H460 tumor-bearing mice (lung cancer)
Assay: Biodistribution: lutetium accumulation in tumor, plasma and healthy tissues by ICP-MS
Assay type: in vivo
Settings: 24 h; for Kidney uptake, % ID/g 24 h / Liver uptake, % ID/g 24 h / Plasma, % ID/g 24 h / Tumor uptake, % ID/g, 24 h: second table
Method: Lutetium accumulation was measured in tumor, plasma and healthy tissues of NCI-H460 tumor-bearing mice (lung cancer). NCJ-H460 tumor bearing mice were dosed with 0.5 mg/kg of lutetium conjugates. At the time points indicated, mice were sacrificed and tumor, liver, kidneys and plasma were taken. All tissues were analyzed for lutetium content by ICP-MS, and lutetium uptake in % ID/g determined by the following equation: […]
Biodistribution at 24 h and Tumor/Kidney ratio (T/K), Tumor/Liver ratio (T/L), Tumor/Plasma ratio (T/P) are give in the table below.

| SMILES | T/K (Tumor/Kidney ratio) | T/L (Tumor/Liver ratio) | T/P (Tumor/Plasma ratio) | Kidney uptake, % ID/g 24 h | Liver uptake, % ID/g 24 h | Plasma, % ID/g 24 h | Tumor uptake, % ID/g, 24 h |
| --- | --- | --- | --- | --- | --- | --- | --- |
| CC(C)c1cc(-c2nnc(O)n2-c2ccc(OC3CCN(C(=O)CCOCCOCCOCCOCCNC(=O)CN4CCN5CCN6CCN(CC4)CC(=O)[O][Lu]([O]C(=O)C5)[O]C(=O)C6)CC3)cc2)c(O)cc1O [CMP40] | 5.08 | 62.28 | 29.23 | 0.14 % ID/g | 0.01 % ID/g | 0.02 % ID/g | 0.71 % ID/g |
| CCNC(=O)c1nnc(-c2cc(C(C)C)c(O)cc2O)n1-c1ccc(OC2CCN(C(=O)CCNC(=O)[C@@H](CCC(=O)N3CCC(Oc4ccc(-n5c(C(=O)NCC)nnc5-c5cc(C(C)C)c(O)cc5O)cc4)CC3)NC(=O)CCOCCOCCOCCOCCNC(=O)CN3CCN4CCN5CCN(CC3)CC(=O)[O][Lu]([O]C(=O)C4)[O]C(=O)C5)CC2)cc1 [CMP35] | 0.74 | 0.50 | 3.97 | 11.87 % ID/g | 17.67 % ID/g | 2.212 % ID/g | 8.776 % ID/g |
| CCNC(=O)c1nnc(-c2cc(C(C)C)c(O)cc2O)n1-c1ccc(CC2CCN(C(=O)C[C@H](NC(=O)CN3CCN4CCN5CCN(CC3)CC(=O)[O][Lu]([O]C(=O)C4)[O]C(=O)C5)C(=O)N[C@H](C)C(=O)N3CCC(Cc4ccc(-n5c(C(=O)NCC)nnc5-c5cc(C(C)C)c(O)cc5O)cc4)CC3)CC2)cc1 [CMP27] | 1.13 | 0.50 | 1.53 | 6.66 % ID/g | 14.98 % ID/g | 4.89 % ID/g | 7.50 % ID/g |
| CCNC(=O)c1nnc(-c2cc(C(C)C)c(O)cc2O)n1-c1ccc(CN2CCN(C(=O)CCOCCOCCOCCOCCNC(=O)CN3CCN4CCN5CCN6CC(=O)O[C]6(C3)[Lu]([O]C(=O)C4)[O]C(=O)C5)CC2)cc1 (centres unmarked) [CMP1] | 1.28 | 1.92 | 7.68 | 0.91 % ID/g | 0.607 % ID/g | 0.152 % ID/g | 1.167 % ID/g |
| CCNC(=O)c1nnc(-c2cc(C(C)C)c(O)cc2O)n1-c1ccc(CC2CCN(C(=O)CCOCCOCCOCCOCCNC(=O)[C@H](CCCCNC(=O)CCCc3ccc(I)cc3)NC(=O)CN(CC)CCN3CCN4CCN(C)CC(=O)[O][Lu]([O]C(=O)C4)[O]C(=O)C3)CC2)cc1 [CMP4] | 2.53 | 3.55 | 0.87 | 3.24 % ID/g | 2.31 % ID/g | 9.48 % ID/g | 8.21 % ID/g |
